Measured values: US20260183411A1, “TARGETING SORTILIN” (priority 2024, published 2026)

Columns and labels:
[1] = molecular target: T1, SORT1 (Homo sapiens, UniProt Q99523); assay: FP competition binding assay
T1 construct: Human SORT1 (78-755)-His (Acrobiosystems); His (C); purchased Acrobiosystems SON-H52H5
T1 sequence (Q99523 78-755): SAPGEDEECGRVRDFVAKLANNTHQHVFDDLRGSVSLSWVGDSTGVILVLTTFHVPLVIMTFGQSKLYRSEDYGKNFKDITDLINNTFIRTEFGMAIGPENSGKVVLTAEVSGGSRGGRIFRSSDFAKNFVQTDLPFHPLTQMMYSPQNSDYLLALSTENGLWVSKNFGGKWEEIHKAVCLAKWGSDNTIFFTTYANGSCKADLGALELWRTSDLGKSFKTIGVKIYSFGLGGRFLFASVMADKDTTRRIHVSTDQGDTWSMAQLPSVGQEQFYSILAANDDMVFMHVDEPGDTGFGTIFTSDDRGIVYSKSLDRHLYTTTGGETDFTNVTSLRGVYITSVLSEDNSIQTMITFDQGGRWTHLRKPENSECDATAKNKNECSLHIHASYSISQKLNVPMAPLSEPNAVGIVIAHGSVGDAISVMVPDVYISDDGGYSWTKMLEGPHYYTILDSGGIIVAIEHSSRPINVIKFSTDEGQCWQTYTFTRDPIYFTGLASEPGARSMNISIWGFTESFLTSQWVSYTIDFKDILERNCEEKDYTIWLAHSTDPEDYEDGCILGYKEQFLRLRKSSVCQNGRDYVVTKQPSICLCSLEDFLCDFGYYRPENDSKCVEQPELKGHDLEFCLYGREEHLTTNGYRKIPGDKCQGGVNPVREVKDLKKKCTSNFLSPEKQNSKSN
Procedure: Competition binding studies were conducted in a similar manner to the direct binding protocol. Unlabeled peptides were prepared with a 12-point, two-fold dilution series in a V-bottom 96-well plate for a total volume of 25 uL with a starting concentration of 50 μM. A 10× working stock of the FAM labeled peptide was prepared as described for the Direct binding experiment.
A 500 nM working solution (EC80) of target protein was prepared in the FP buffer (1×PBS, pH 7.4, 0.1% Tween-20). An aliquot of 20 μL of the 500 nM working solution was then added to 2.5 μL of the FAM-peptide, after which 2.5 μL of the unlabeled peptide dilution series was added and mixed by pipetting in a V-bottom 96-well plate. […] The 384-well plate was then centrifuged 1 min, 4000 rpm and fluorescence and polarization of dye measured on a Biotek Synergy Neo2 plate reader using the same settings as for the Direct Binding experiment. Data were then fitted to a One site—Fit log IC50 curve in GraphPad to calculate the IC50.
The various conjugates were evaluated in a competitive fluorescence polarization study as described elsewhere herein.

[2] = Murine plasma stability assay; type: in vitro ADME; settings: mouse, 2 μM, 37° C., read-out: Murine plasma stability assay, T1/2
Procedure: Frozen plasma was thawed at 37° C. and centrifuged at 4000 rpm to remove any clots and transferred to 96-well reaction plates by WuXi AppTec. Test compounds were added to the reaction plate at a final concentration of 2 μM and either stopped immediately or incubated at 37° C. for 5 minutes, 10 minutes, 30 minutes, 60 minutes, or 120 minutes. At the end of incubation, stop solution consisting of 200 ng/mL tolbutamide and 200 ng/mL labetalol in ACN was added to precipitate protein and mixed thoroughly. Samples were then transferred to a bioanalysis plate and shaken for 10 minutes prior to HPLC-MS/MS analysis of percent remaining compound.
Table 14 tabulates the plasma stability for each of the three PDCs tested.

[3] = CMC formulation buffer screen; type: physicochemical; settings: 0.5 mg/mL
Procedure: Exemplary conjugate agents (e.g., sortilin binding agents), referred to in the present Example as “peptide drug conjugates” or “PDCs” were assessed in a formulation screen to determine an appropriate vehicle for in vivo studies and to assess precipitation risk. PDC solutions were made up to 0.5 mg/mL in the following buffers: 25 mM Histidine 10% sucrose pH 7, 50 mM acetate/acetic acid, 10% sucrose pH 5, 1×PBS pH 7.4, Saline, 50 mM HEPES 10% sucrose pH 7. Solubility was assessed using a shake flask method and the test compound concentration of the filtrate was confirmed using HPLC-UV.
The following buffers were screened: 25 mM Histidine 10% sucrose pH 7, 50 mM acetate/acetic acid, 10% sucrose pH 5, 1×PBS pH 7.4, Saline, 50 mM HEPES 10% sucrose pH 7. The PDCs were soluble in all buffers tested (Table 1), and we proceed to use 25 mM Histidine, 10% sucrose pH 7 as our buffer of choice for our in vivo studies.

CC[C@H](C)[C@@H]([C@@H](CC(=O)N1CCC[C@H]1[C@H](OC)[C@@H](C)C(=O)N[C@H](C)[C@@H](O)c1ccccc1)OC)N(C)C(=O)[C@@H](NC(=O)[C@H](C(C)C)N(C)C(=O)OCc1ccc(NC(=O)[C@H](CCCNC(N)=O)NC(=O)[C@@H](NC(=O)CCCC(=O)NCCC(=O)N(C)CC(=O)N(C)CC(=O)N(C)CC(=O)N(C)CC(=O)N[C@@H](C)C(=O)N2CCC[C@H]2C(=O)N[C@@H](CCCNC(=N)N)C(=O)N[C@@H](Cc2c[nH]c3ccccc23)C(=O)N[C@@H](CC(=O)O)C(=O)N[C@@H](C)C(=O)N2CCC[C@H]2C(=O)N[C@@H](CC(C)C)C(=O)N[C@@H](CCCNC(=N)N)C(=O)N[C@@H](CC(=O)O)C(=O)N2CCC[C@H]2C(=O)N[C@@H](C)C(=O)N[C@@H](CC(C)C)C(=O)N[C@@H](CCCNC(=N)N)C(=O)N[C@@H](CCC(N)=O)C(=O)N[C@@H](CC(C)C)C(=O)N[C@@H](CC(C)C)C(=O)O)C(C)C)cc1)C(C)C [PRGN_WT_PDC]
increase in affinity relative to parent homing peptide [1]: ~2.5 ×
half-life [2]: 17.1 min
result (buffer screening) ([3]; 25 mM Histidine 10% sucrose pH 7): clear solution
result (buffer screening) ([3]; 50 mM HEPES 10% sucrose pH 7): clear solution
result (buffer screening) ([3]; 50 mM acetate/acetic acid, 10% sucrose pH 5): clear solution
result (buffer screening) ([3]; 1x PBS pH 7.4): clear solution
result (buffer screening) ([3]; Saline): clear solution
